Among the data in PMC6751169 are FRET efficiency E, stoichiometry N and stoichiometry N (MenH per 4 MenD (per particle)) values, retold here.

In assay [1] the target is CrtERD-YFP (geranylgeranyl diphosphate synthase, CrtE-RIDD, fused with yellow fluorescent protein) (UniProt P10644). The assay can be described thus: FRET or BRET; lifetime-based FRET (two-photon FLIM) in living E. coli cells; CFP donor excited at 810 nm, signal collected at 481 nm; strain Car2f against control strain Car1f. On the technique in general: BRET reads energy transfer from a luciferase to a nearby fluorophore.

The target of assay [2] is MenDRA2 (MenD-RIAD-RIAD with two sequential RIAD peptide tags) (E. coli). The assay is described as follows: transmission electron microscopy; TEM of the SEC-purified Assemblies A, B and C; two-dimensional single-particle analysis on Assembly B.
The target in assay [3] is MenDRA (MenD-RIAD with one RIAD peptide tag) (E. coli). Described as above.
Assay [4] concerns the target MenDRD (MenD-RIDD with one RIDD peptide tag) (E. coli | not stated). The assay is described as above.
Assay [5] shares this target. The assay is described as follows: SEC; 1.5 mg of enzyme fused with RIAD mixed with two-fold molar excess of enzyme fused with RIDD in Tris buffer pH 7.8, 1 mM EDTA, 0.02% Tween-20, no incubation; Superdex 200 10/300 GL, 0.4 mL/min, Tris pH 7.8, 50 mM NaCl; masses from a calibration curve. (In general: In gel filtration, larger molecules generally elute earlier.)

Turning to “IdiRA-CFP (isopentenyl diphosphate isomerase, Idi-RIAD, fused with cyan fluorescent protein) (enzyme)”, the FRET efficiency E in assay [1] was determined as 29%.

In turn, “MenDRA2 (MenD-RIAD-RIAD with two sequential RIAD peptide tags) (enzyme)” gave a stoichiometry N in assay [2] of 4. For “MenDRA (MenD-RIAD with one RIAD peptide tag) (enzyme)”, the stoichiometry N in assay [3] amounted to 4.

“MenDRD (MenD-RIDD with one RIDD peptide tag) (from UniProt P10644 1-44) (enzyme)” gave a stoichiometry N in assay [4] of 4. In assay [5], “MenHRA (MenH-RIAD with one RIAD peptide tag) (enzyme)” registered a stoichiometry N (MenH per 4 MenD (per particle)) of 2.

As usually defined, the stoichiometry N is the number of molecules, sites or subunits per partner or assembly.
